Source: article PMC10221750

Legend:
[1] = biological target: BG505 SOSIP.664 trimer (HIV-1 isolate BG505 (Clade A))
[2] = biological target: BG505 SOSIP.664 trimer (HIV-1 isolate BG505 (Clade A)); assay: SPR

Substance: PGT151 IgG (antibody)
- neutralization of BG505 pseudovirus in a TZM-bl assay, IC50 [1]: 0.043 µg/mL

Substance: PGT151 Fab
- KD1 (site 1, heterogeneous-ligand model) [2]: < 0.1 nM
- KD2 (site 2, heterogeneous-ligand model) [2]: 27 nM
- Kd [2]: 2 nM
- Sm1 (stoichiometry of site 1, heterogeneous-ligand model) (Fab molecules per trimer) [2]: 1.2
- Sm1 + Sm2 (cumulative stoichiometry, heterogeneous-ligand model) (Fab molecules per trimer) [2]: 1.9
- Sm2 (stoichiometry of site 2, heterogeneous-ligand model) (Fab molecules per trimer) [2]: 0.7
- koff [2]: 0.00018 s⁻¹
- koff1 (site 1, heterogeneous-ligand model) [2]: < 1e-05 s⁻¹
- koff2 (site 2, heterogeneous-ligand model) [2]: 0.00076 s⁻¹
- kon [2]: 87000 M⁻¹ s⁻¹
- kon1 (site 1, heterogeneous-ligand model) [2]: 140000 M⁻¹ s⁻¹
- kon2 (site 2, heterogeneous-ligand model) [2]: 28000 M⁻¹ s⁻¹
- stoichiometry N (Fab molecules per trimer) [2]: 1.9
